# Reference: IntAct's records for PubMed 36931259
# B1: 14-3-3 protein sigma (Homo sapiens), P31947 (parent)
# chain: MERASLIQKAKLAEQAERYEDMAAFMKGAVEKGEELSCEERNLLSVAYKNVVGGQRAAWRVLSSIEQKSNEEGSEEKGPEVREYREKVETELQGVCDTVLGLLDSHLIKEAGDAESRVFYLKMKGDYYRYLAEVATGDDKKRIIDSARSAYQEAMDISKKEMPPTNPIRLGLALNFSVFHYEIANSPEEAISLAKTTFDEAMADLHTLSEDSYKDSTLIMQLLRDNLTLWTADNAGEEGGEAPQEPQS
# partner: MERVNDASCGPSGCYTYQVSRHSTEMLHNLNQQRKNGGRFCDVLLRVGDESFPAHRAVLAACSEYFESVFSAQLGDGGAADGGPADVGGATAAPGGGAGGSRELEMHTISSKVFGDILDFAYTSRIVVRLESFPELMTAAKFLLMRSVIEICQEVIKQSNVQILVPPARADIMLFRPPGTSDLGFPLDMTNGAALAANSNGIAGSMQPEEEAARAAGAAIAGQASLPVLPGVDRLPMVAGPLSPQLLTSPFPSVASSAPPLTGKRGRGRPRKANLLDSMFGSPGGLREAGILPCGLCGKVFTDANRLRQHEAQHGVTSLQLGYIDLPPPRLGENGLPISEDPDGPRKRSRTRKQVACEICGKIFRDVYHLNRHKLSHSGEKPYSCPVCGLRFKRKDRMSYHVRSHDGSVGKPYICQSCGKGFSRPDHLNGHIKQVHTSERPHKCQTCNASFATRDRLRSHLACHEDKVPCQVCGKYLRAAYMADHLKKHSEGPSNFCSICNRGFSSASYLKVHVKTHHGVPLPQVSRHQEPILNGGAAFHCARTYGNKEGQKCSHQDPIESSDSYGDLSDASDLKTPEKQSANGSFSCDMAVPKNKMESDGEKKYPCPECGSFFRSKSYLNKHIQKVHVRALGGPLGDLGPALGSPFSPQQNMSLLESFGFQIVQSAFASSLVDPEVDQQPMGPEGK
# B2: 14-3-3 protein sigma (Homo sapiens), P31947 (parent)
# chain: B1 chain
# partner: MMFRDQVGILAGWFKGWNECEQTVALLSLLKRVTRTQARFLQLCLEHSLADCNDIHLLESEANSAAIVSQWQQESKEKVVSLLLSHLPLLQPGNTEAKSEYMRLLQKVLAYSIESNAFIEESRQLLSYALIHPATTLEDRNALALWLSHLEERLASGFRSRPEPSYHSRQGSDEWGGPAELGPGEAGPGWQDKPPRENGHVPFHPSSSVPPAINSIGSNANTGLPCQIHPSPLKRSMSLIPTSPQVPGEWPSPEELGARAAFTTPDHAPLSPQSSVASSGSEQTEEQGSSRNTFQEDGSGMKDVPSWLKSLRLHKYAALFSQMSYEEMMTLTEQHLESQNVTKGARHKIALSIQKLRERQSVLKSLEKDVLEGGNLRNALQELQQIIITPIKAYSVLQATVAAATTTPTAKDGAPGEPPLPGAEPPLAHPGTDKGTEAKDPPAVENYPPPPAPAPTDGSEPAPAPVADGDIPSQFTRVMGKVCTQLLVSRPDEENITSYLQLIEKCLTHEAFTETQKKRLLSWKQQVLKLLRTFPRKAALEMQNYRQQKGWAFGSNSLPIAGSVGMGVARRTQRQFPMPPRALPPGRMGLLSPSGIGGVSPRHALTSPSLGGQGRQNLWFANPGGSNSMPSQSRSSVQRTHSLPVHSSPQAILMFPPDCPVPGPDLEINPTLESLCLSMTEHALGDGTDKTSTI
# B3: 14-3-3 protein sigma (Homo sapiens), P31947 (parent)
# chain: B1 chain
# partner: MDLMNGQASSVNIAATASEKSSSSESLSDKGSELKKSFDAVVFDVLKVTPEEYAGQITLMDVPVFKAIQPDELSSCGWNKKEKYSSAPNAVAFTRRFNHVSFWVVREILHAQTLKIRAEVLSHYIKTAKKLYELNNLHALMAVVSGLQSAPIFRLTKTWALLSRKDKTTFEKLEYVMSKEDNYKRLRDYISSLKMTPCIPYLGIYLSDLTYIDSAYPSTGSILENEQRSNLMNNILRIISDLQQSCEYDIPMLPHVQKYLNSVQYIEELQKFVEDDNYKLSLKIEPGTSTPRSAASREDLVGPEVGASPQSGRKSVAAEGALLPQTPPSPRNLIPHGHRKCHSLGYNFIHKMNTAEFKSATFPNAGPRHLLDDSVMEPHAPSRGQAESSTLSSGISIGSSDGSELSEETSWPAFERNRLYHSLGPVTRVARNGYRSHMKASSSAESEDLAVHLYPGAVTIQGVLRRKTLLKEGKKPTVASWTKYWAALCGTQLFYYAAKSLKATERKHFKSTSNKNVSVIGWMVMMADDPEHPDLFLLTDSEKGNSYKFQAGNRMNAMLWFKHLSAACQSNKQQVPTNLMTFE
# B4: 14-3-3 protein sigma (Homo sapiens), P31947 (parent)
# chain: B1 chain
# partner: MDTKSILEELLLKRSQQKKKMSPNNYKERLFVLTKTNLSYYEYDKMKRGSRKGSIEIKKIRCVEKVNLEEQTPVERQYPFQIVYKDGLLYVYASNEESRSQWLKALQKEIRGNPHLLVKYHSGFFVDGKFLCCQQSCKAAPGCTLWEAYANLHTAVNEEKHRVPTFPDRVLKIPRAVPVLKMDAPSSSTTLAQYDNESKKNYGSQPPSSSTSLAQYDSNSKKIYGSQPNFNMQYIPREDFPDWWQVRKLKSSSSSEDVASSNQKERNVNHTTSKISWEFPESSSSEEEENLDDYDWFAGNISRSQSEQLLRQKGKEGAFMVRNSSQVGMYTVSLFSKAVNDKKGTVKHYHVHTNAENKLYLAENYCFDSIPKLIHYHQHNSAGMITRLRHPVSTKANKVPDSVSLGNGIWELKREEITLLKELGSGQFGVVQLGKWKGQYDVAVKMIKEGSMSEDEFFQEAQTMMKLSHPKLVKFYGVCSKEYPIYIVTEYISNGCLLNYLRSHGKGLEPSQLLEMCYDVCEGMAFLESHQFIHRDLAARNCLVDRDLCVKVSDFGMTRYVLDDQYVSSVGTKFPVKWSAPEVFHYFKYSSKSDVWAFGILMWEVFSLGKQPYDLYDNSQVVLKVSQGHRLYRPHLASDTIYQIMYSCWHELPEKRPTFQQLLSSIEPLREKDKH
# B5: 14-3-3 protein sigma (Homo sapiens), P31947 (parent)
# chain: B1 chain
# partner: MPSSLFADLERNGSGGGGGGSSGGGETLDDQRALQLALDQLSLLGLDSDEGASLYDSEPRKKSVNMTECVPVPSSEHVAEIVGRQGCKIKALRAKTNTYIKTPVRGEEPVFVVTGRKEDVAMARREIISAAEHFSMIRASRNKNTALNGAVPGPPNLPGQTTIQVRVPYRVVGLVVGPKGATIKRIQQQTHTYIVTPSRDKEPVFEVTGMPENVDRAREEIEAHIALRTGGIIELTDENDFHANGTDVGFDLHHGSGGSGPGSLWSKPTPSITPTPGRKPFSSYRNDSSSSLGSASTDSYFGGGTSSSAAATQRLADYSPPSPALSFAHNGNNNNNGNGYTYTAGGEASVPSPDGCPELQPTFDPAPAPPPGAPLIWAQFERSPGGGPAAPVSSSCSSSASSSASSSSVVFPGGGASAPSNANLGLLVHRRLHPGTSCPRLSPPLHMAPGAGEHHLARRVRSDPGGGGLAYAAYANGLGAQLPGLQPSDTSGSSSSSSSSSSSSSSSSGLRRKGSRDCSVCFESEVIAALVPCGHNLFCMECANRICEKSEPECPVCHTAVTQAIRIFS
# Variants of: B1
# Details: with patz1_human PATZ1, Q9HBE1
row,Variant,effect of a mutation on the interaction
1,K49E;R56E;V178D,decreasing interaction strength

# Variants of: B2
# Details: with smag2_human SAMD4B
row,Variant,effect of a mutation on the interaction
1,K49E;R56E;V178D,decreasing interaction strength

# Variants of: B3
# Details: with rgps2_human RALGPS2, Q86X27
row,Variant,effect of a mutation on the interaction
1,K49E;R56E;V178D,decreasing interaction strength

# Variants of: B4
# Details: with bmx_human BMX
row,Variant,effect of a mutation on the interaction
1,K49E;R56E;V178D,decreasing interaction strength

# Variants of: B5
# Details: with mex3b_human MEX3B
row,Variant,effect of a mutation on the interaction
1,K49E;R56E;V178D,decreasing interaction strength
